Assay results taken from publication PMC4624033.

How the values were obtained:
Experiment in all cases: AUC
[1] = target: PcdhγC5 EC1-EC6 S116R (mouse)
PcdhγB6 EC1-EC4 = target: PcdhγB6 EC1-EC4
[2] = target: PcdhγC5 EC1-EC6 (complete ectodomain) (mouse)
PcdhγC5 EC1-EC5 (mouse) = target: PcdhγC5 EC1-EC5 (mouse)
PcdhαC2 EC2-EC6 (mouse) = target: PcdhαC2 EC2-EC6 (mouse)
PcdhαC2 EC1-EC5 (mouse) = target: PcdhαC2 EC1-EC5 (mouse)
PcdhγC5 EC2-EC6 (mouse) = target: PcdhγC5 EC2-EC6 (mouse)
PcdhγA8 EC1-EC4 (mouse) = target: PcdhγA8 EC1-EC4 (mouse)
[3] = target: PcdhαC2 EC1-EC6 S118R (mouse)
[4] = target: PcdhγB6 EC1-EC6 (complete ectodomain)
Pcdhα7 EC1-EC5 (mouse) = target: Pcdhα7 EC1-EC5 (mouse)
PcdhγA8 EC2-EC6 (mouse) = target: PcdhγA8 EC2-EC6 (mouse)
PcdhαC2 EC1-EC4 (mouse) = target: PcdhαC2 EC1-EC4 (mouse)
[5] = target: PcdhαC2 EC1-EC6 (complete ectodomain) (mouse)
[6] = target: PcdhγC5 EC2-EC6 S116R (mouse)

PcdhγC5 EC1-EC6 S116R (domain or fragment)
Kd [1]: 5.7 µM
stoichiometry N [1]: 2

PcdhγB6 EC1-EC4 (domain or fragment)
Kd (PcdhγB6 EC1-EC4): 29 µM
stoichiometry N (PcdhγB6 EC1-EC4): 2

PcdhγC5 EC1-EC6 (complete ectodomain) (domain or fragment)
stoichiometry N [2]: 4

PcdhγC5 EC1-EC5 (domain or fragment)
Kd (PcdhγC5 EC1-EC5 (mouse)): 100 µM
stoichiometry N (PcdhγC5 EC1-EC5 (mouse)): 2

PcdhαC2 EC2-EC6 (domain or fragment)
stoichiometry N (PcdhαC2 EC2-EC6 (mouse)): 2

PcdhαC2 EC1-EC5 (domain or fragment)
Kd (PcdhαC2 EC1-EC5 (mouse)): 5.9 µM
stoichiometry N (PcdhαC2 EC1-EC5 (mouse)): 2

PcdhγC5 EC2-EC6 (domain or fragment)
stoichiometry N (PcdhγC5 EC2-EC6 (mouse)): 2

PcdhγA8 EC1-EC4 (domain or fragment)
Kd (PcdhγA8 EC1-EC4 (mouse)): 30 µM
stoichiometry N (PcdhγA8 EC1-EC4 (mouse)): 2

PcdhαC2 EC1-EC6 S118R (domain or fragment)
Kd [3]: 1.8 µM
stoichiometry N [3]: 4

PcdhγB6 EC1-EC6 (complete ectodomain) (domain or fragment)
stoichiometry N [4]: 4

Pcdhα7 EC1-EC5 (domain or fragment)
Kd (Pcdhα7 EC1-EC5 (mouse)): 2.9 µM
stoichiometry N (Pcdhα7 EC1-EC5 (mouse)): 2

PcdhγA8 EC2-EC6 (domain or fragment)
Kd (PcdhγA8 EC2-EC6 (mouse)): 23 µM
stoichiometry N (PcdhγA8 EC2-EC6 (mouse)): 2

PcdhαC2 EC1-EC4 (domain or fragment)
Kd (PcdhαC2 EC1-EC4 (mouse)): 20 µM
stoichiometry N (PcdhαC2 EC1-EC4 (mouse)): 2

PcdhαC2 EC1-EC6 (complete ectodomain) (domain or fragment)
Kd [5]: 0.1 µM
stoichiometry N [5]: 4

PcdhγC5 EC2-EC6 S116R (domain or fragment)
Kd [6]: 14 µM
stoichiometry N [6]: 2
